Blank lines part the entries; values can stand above or below the binder they belong to.
Legend:
[1] = target: T1, Osm1 (residues 32-501), 6x His-tagged (S. cerevisiae, UniProt P21375 32-501); experiment: SPR; Biacore T-200, CM5 chip; MBP-Ero1 immobilised by amine coupling (1500 RU); Osm1 or chimeric Osm1 injected in PBS at 6.25 to 200 µM, 30 µL/min, 25 °C; affinity (steady-state) fitting; conditions: both partners purified
T1 construct: Osm1, soluble fumarate reductase of S. cerevisiae, amino acids 32-501, cloned in pET28a (NheI/XhoI); no removal of the tag is described except by trypsin for crystallisation; A31 is an extra residue from the cloning construct; The limits of the pET28a Osm1 used in the pull-down are not repeated in the methods; also called holo-Osm1; WT Osm1; source: also in lysate of BL21(DE3) co-expressing …
T1 sequence (P21375 32-501): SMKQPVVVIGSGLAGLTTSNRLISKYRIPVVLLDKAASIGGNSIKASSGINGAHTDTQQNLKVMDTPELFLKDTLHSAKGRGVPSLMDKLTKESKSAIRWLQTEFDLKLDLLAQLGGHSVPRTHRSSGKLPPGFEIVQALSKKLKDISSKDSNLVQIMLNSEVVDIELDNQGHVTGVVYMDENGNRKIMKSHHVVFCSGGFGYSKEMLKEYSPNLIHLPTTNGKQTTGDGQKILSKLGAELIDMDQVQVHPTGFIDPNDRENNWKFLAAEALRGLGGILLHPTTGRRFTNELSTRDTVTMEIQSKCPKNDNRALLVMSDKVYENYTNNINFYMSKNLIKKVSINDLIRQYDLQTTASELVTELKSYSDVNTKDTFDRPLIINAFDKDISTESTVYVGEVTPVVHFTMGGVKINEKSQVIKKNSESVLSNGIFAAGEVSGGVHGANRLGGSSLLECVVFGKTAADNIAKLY

[2] = target: T1, Osm1 (residues 32-501), 6x His-tagged; experiment: ITC; nano-ITC; 2.5 µL injections of 1.6 mM Osm1 into 40 µM Ero1 in PBS; conditions: both partners purified

- Kd [1]: ~200 µM
B1: His6-maltose-binding protein (H6-MBP)-fused Ero1 (56-424) (enzyme, yeast, UniProt Q03103 56-424, looked up)
chain: FNELNAINENIRDDLSALLKSDFFKYFRLDLYKQCSFWDANDGLCLNRACSVDVVEDWDTLPEYWQPEILGSFNNDTMKEADDSDDECKFLDQLCQTSKKPVDIEDTINYCDVNDFNGKNAVLIDLTANPERFTGYGGKQAGQIWSTIYQDNCFTIGETGESLAKDAFYRLVSGFHASIGTHLSKEYLNTKTGKWEPNLDLFMARIGNFPDRVTNMYFNYAVVAKALWKIQPYLPEFSFCDLVNKEIKNKMDNVISQLDTKIFNEDLVFANDLSLTLKDEFRSRFKNVTKIMDCVQCDRCRLWGKIQTTGYATALKILFEINDADEFTKQHIVGKLTKYELIALLQTFGRLSESIESVNMFEKMYGKRL
notes: Ero1, ER-resident flavoenzyme of yeast, residues 56-424; FAD cofactor; Uncleaved fusion (83 kDa) immobilised on the CM5 chip; a TEV site lies between H6-MBP and Ero1; The only purified MBP-Ero1 described in the methods is the H6-MBP fusion; also called MBP-Ero1; purified MBP-Ero1; source: E. coli Origami B(DE3), purified (HiTrap Ni2+, amylose)

- Kd [2]: ~150 µM
B2: Ero1 (56-424), H6-MBP cleaved off (enzyme, yeast, UniProt Q03103 56-424, looked up)
chain: B1 chain
notes: Ero1, ER-resident flavoenzyme of yeast, residues 56-424; FAD cofactor; The ITC methods name only 'Ero1'; also called recombinant Ero1; source: E. coli Origami B(DE3), purified (HiTrap Ni2+, amylose, TEV cleavage, Ni2+ flow-through)
